Tested on: K4 kissing-loop RNA reporter
Test: apparent KD of K4 kissing-loop reporter; higher = weaker reporter binding
Settings: Eterna round: R107
Experimental: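 RNA-MaP round R107: designed RNA switches with theophylline, tryptophan, arginine or FMN aptamers are transcribed on-chip within common flanks. They are titrated with a labelled K4 kissing-loop RNA reporter in RNA-MaP buffer (100 mM Tris pH 7.5, 80 mM KCl, 4 mM MgCl2), without ligand or with the indicated ligand. Median apparent KD per design.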

[1] = input ligand: theophylline 20 uM
[2] = input ligand: tryptophan 2.4 mM
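Also: bound reporter read as fluorescence of individual clusters on recovered sequencing chips by microscopy, with normalized cluster intensities fitted with a binding model.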

Row | Sequence | apparent KD of K4 kissing-loop reporter (input ligand: FMN 200 uM) [nM] | apparent KD of K4 kissing-loop reporter (input ligand: arginine 13.2 mM) [nM] | apparent KD of K4 kissing-loop reporter (input ligand: none) [nM] | apparent KD of K4 kissing-loop reporter [1] [nM] | apparent KD of K4 kissing-loop reporter [2] [nM]
1 | GGUGCUGUCUGUGCCGCCCUCCUCGUUCCUCGAGGACCGGUACGGCCGCCACUCGAGUGAUGUUUGGGUAGCGAUCCCUGCUAGC [Bdazzled - #16 Exc. Tryptophan A] | 792 | 719 | 1060 | 801 | 696
2 | UGAUAGGACAGAAGGAGCGGCAGUGAUGUUGCCAAAAGGUUAAGGUGUCAAAAGACACCCUGCCAGGUAGGUCGCUGUCCUAUCU | 202 | 236 | 212 | 214 | 208
3 | GCCUUAUAUCGAGCUACAGCUCGAUUUGGUCGAGGACCGGUACGGCCGCCACUCGAAUGAUAGUGAUGUUAUCAUUAUGGCCUAA [JR_ExcTryptoA_Sub022] | 185 | 137 | 183 | 130 | 148
4 | GGUUUAUAGGAGGAUACCAGUACGGAUAAAGUACGUUAAUAGUAGAGUGAUGUUCUAAAGUACCCUUGGCAGCUUAGAGUAAGUU [ExTheophylB.K] | 85.8 | 147 | 105 | 117 | 63.4
5 | AUUUAGACGAGUGAUGUUCGUGUUAUUACAGAGGAUAUGCGUGAUUGCAGAAGGCUGUAUUUAUAUAUGUUAUGUGGUUUUAAAA [whbob_Ex_FMNA__2th186] | 79.7 | 102 | 90.7 | 102 | 69.9
6 | UAACUCUUGCAGUGAUGUUGCAAGUAAGCUCAGGAUAUCAGGAAACUGAGAAGGGAGUAUCCUGAGCUUCUGCAAGAGCUCAGAA [KL-SSFMN-A5] | 227 | 83.2 | 362 | 68.6 | 97.3
7 | GUUACGCAUGGAAGGAGCGCAUGCUCAACUAUAAGCUCAGUGAUGUUGAGCAUUUUUUUUUUGCAGGUAGGUCGCCAUGUGUAAC [Ex Arginine B K4 29] | 320 | 255 | 386 | 438 | 217
8 | UAUUAAUUGACGGCCGCCACUAUGGUGAUUUAUUUGUUUGAGUGAUGUUUUGAUGUUUGAUUUUGUAGGACCGGGUUAUGUGUUA [pokcmullin] | 962 | 738 | 853 | 748 | 680
9 | UCCUGCAAUCGUCCACGAAAGUGGAUUGAUACCAGAGUCGAAAGACUCCCUUGGCAGCGAGUGAUGUUCGAAGCAGGUAAAUAAA | 432 | 365 | 417 | 363 | 337
10 | GAAGUACAGGCGGCCGCCACUAGUGAUGUUAGUGAUAAAAGAUAAAGUAUAUAUCGGCAUGUAGAUAGGACCGGGCCUGAUGGAG [uiiumullin] | 118 | 296 | 186 | 203 | 298
11 | UUCAGGUGUUCGGCCGCCACUCCAGUGAUGUUGGAGUGGCUUCACAAGGACCAGGACAAUGUAAGGAGGACCGGGAAUAUCGCAG [Leerat] | 143 | 110 | 131 | 115 | 125
12 | AAUUCAGCUAGUGAUGUUAGCGUAGAGUGCAAGGAUAUCCCUGUCAGGAGAAGGUGCGUAGAACGUUUGCCAUCAGAUUGUCCCA [theeternabot_exclusion_KL_FMN_A_48] | 176 | 97.2 | 118 | 104 | 109
13 | AUAGAGAAGUGGCACCCUCACUAAAACAGUCGAGGACCGGUACGGCCGCCACUCGCGCGCUUUAGUGAUGUUAAAGAUGUGAAAA | 223 | 209 | 223 | 508 | 215
14 | GGUCCGGGCUCGGCCGCCACUCCCUCCUGCCGGAAGGUGGGAUACCGAGUGAUGUUCGGUUGGAGGAGGACCGGGAGCCCGGACC [#2 Exclusion - Tryptophan B Attempt #13 (HarryS)] | 132 | 106 | 123 | 161 | 129
15 | AAGGCAAUUCGAGGAUAUCACAUACACUCCUUGAAUCAAGGAGUGAUGUUCCUUGAAGUGUAUGCAUGAGAAGGCGAAUUGCCUU [#05 K4 FMN B Same State] | 113 | 86.5 | 95.4 | 99.3 | 95.3
16 | UCUUGUUCAUAGUGAUGUUAUGAGCUUAGAAAGGAUAUGAUCAACAUCAGAAGGUUCAAGGAUUCCCGACUCCAACUUCGGUUUC [theeternabot_sameState_KL_FMN_A_43] | 280 | 270 | 306 | 339 | 332

— the supplement of paper PMC9170038
